According to US5985836A, “Alpha-1 proteinase inhibitor binding peptides” (Bayer Corporation, priority 1998, dated 1999):
Ends that are not written are not given here.

Key:
A1PI [1] = target: T1, A1PI (Homo sapiens, UniProt P01009); assay: A1PI binding on peptide-resin column, injection of 1 mg A1PI in equilibration buffer; details: for % of Total A1PI Eluted by Fraction (Based on Absorbance at 280 nm), 1M NaCl / % of Total A1PI Eluted by Fraction (Based on Absorbance at 280 nm), 2% Acetic Acid / % of Total A1PI Eluted by Fraction (Based on Absorbance at 280 nm), Flowthrough: 1 mg A1PI
T1 construct: Human plasma is currently the only approved source of therapeutic AlPI
T1 sequence (P01009 25-418): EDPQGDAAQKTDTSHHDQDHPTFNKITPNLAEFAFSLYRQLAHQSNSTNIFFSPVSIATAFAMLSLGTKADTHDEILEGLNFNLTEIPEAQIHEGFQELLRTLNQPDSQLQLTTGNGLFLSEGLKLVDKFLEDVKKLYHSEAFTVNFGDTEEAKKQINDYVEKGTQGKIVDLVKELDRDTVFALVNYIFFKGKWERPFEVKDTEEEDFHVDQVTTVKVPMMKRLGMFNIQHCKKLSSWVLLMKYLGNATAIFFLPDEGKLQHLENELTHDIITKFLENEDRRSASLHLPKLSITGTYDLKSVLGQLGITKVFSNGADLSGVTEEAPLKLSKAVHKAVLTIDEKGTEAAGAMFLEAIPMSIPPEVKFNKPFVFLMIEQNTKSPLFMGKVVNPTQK
How it was run: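 Percent of total eluted A1PI per fraction (flowthrough, NaCl steps, 2% acetic acid) determined by A280 integration or immunonephelometry. Columns of peptide-derivatized A-Totda-Toyopearl resin (0.1 mmole/g) received 1 mg A1PI at 4 °C or 20 °C, flow 865 or 523 μl/min.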

A1PI [2] = target: T1, A1PI; assay: A1PI yield from dialyzed (aqueous) Effluent II+III; assay type: binding; details: 4° C.
Experimental: Effluent II+III was dialyzed against equilibration buffer at 4° C. to remove the ethanol using a 15,000 molecular weight cut-off membrane. Nephelometry of the Eff. […] A portion of the identified sequences were assayed under the same conditions applied for neat Eff. II+III at 4° C. […] II+III compared to the neat, ethanol-containing feed. The binding strength differed for the aqueous feed as more AlPI eluted in 1M NaCl for the aqueous feed. The AlPI eluted in the 1M NaCl fractions was not as enriched as that eluted in the acid eluates.

[3] = 1 mg A1PI in equilibration buffer, 4° C.
[4] = 1 mg A1PI in equilibration buffer, 20° C.
[5] = VIWLVR N-terminal point mutations, 4° C.
[6] = 1 ml dialyzed Eff. II+III (ethanol removed)
[7] = A1PI, 1 ml dialyzed Eff. II+III

In the case of VIWLVR, the “Percent A1PI Eluted by Fraction Based on Absorbance at 280 nm, 1M NaCl” value (A1PI [1]; [3]) was 25%, the “Percent A1PI Eluted by Fraction Based on Absorbance at 280 nm, 2% Acetic Acid” value (A1PI [1]; [3]) was 30% and the “Percent A1PI Eluted by Fraction Based on Absorbance at 280 nm, Flowthrough” value (A1PI [1]; [3]) was 45%. For the same substance, the “Percent A1PI Eluted by Fraction, 1M NaCl” value (A1PI [1]; [4]) was 26%, the “Percent A1PI Eluted by Fraction, 2% Acetic Acid” value (A1PI [1]; [4]) was 66% and the “Percent A1PI Eluted by Fraction, Flowthrough” value (A1PI [1]; [4]) was 8%. The “% of Total A1PI Eluted by Fraction (Based on Absorbance at 280 nm), 1M NaCl” value (from here on “% of Total A1PI Eluted by Fraction … 1M NaCl”) (A1PI [1]; Trp position mutations, 4° C.) was 25%, the “% of Total A1PI Eluted by Fraction (Based on Absorbance at 280 nm), 2% Acetic Acid” value (A1PI [1]; Trp position mutations, 4° C.) was 30% and the “% of Total A1PI Eluted by Fraction (Based on Absorbance at 280 nm), Flowthrough” value (shortened to “% of Total A1PI Eluted by Fraction … Flowthrough”) (A1PI [1]; Trp position mutations, 4° C.) was 45%. For the same substance, the “% of Total A1PI Eluted by Fraction … 1M NaCl” value (A1PI [1]; Trp position mutations, 20° C.) was 26%, the “% of Total A1PI Eluted by Fraction (Based on Absorbance at 280 nm), 2% Acetic Acid” value (A1PI [1]; Trp position mutations, 20° C.) was 66% and the “% of Total A1PI Eluted by Fraction … Flowthrough” value (A1PI [1]; Trp position mutations, 20° C.) was 8%. The “% of Total A1PI Eluted by Fraction … 1M NaCl” value (A1PI [1]; [5]) was 25%, the “% of Total A1PI Eluted by Fraction (Based on Absorbance at 280 nm), 2% Acetic Acid” value (A1PI [1]; [5]) was 30% and the “% of Total A1PI Eluted by Fraction … Flowthrough” value (A1PI [1]; [5]) was 45%. The “Mass A1PI per Eluate Fraction, 1M NaCl” value (A1PI [2]; [6]) was 0.15 mg, the “Mass A1PI per Eluate Fraction, 2% Acetic Acid” value (A1PI [2]; [6]) was 0.23 mg and the “Mass A1PI per Eluate Fraction, Flowthrough” value (A1PI [2]; [6]) was 0.24 mg. The “Percent Eluted by Fraction, 1M NaCl” value (A1PI [2]; [7]) was 24%, the “Percent Eluted by Fraction, 2% Acetic Acid” value (A1PI [2]; [7]) was 37% and the “Percent Eluted by Fraction, Flowthrough” value (A1PI [2]; [7]) was 39%.
